Assay results taken from PMC4349392.

Target: YFP-tagged CaV1.3 IQ domain, prototypic (IQDY) (rat)
Assay: FRET or BRET

K (a,EFF) (reciprocal D (free) units): 0.000588
Ka: 1.8e+07 M⁻¹
Kd: 55 nM
Substance: CFP-tagged calmodulin, wild type (CFP-CaMWT) (from UniProt P0DP29 1-149) (natural protein)
